Measurements: PMC11681868, “Unveiling the structural mechanisms behind high affinity and selectivity in phosphorylated epitope-specific rabbit antibodies” (The Journal of Biological Chemistry, 2024)

Target: T1, Akt peptide (synthetic peptide; letters match human …)
T1 construct: Akt peptide around 473-Ser, not phosphorylated; also called non-phosphorylated antigen; non-phosphorylated peptide; source: synthetic peptide (SCRUM Inc.)
T1 chain: RPHFPQFSYSAS
Test: ITC; iTC200; 5 μM scFv in the cell, 50 μM peptide in the syringe; samples dialyzed against PBS; triplicate
Settings: both partners purified

Kd: 1120 nM
B1: rabbit antibody A4 scFv (wild type) (scFv, V domains shown)
VH: QEQLMESGGRLVTPGTPLTLTCTASGSDISTYSISWVRQAPGKGLEWIGHIGSSGTQYYASWAKGRFAISRASTTVDLRITGPTTEDTATYFCARRGVGYNLYYNMWGPGTLVTVSL
VL: AIDMTQTPSPVSAAVGGTVTINCQASQSVYNSKNLAWYQQKPGQPPKLLIYDSSTLASGVSSRFRGSGSGTQFTLTISGVQSDDAATYYCQGEFSCSSGDCAGFGGGTEVVVE
notes: VH of rabbit antibody A4; they are in PDB 8JOW (A4 scFv); GS linker of the scFv; PDB 8JOW may hold them; VL (kappa) of rabbit antibody A4; they are in PDB 8JOW; the deposited construct should already hold Ser at L80 (Chothia); Antibody numbering is Chothia; also called A4 WT; source: E. coli BL21(DE3), purified (Ni-NTA, SEC)
